Results from paper PMC3138737, “Interaction between the Triglyceride Lipase ATGL and the Arf1 Activator GBF1” (PLoS ONE, 2011).

B1: HA-tagged H. sapiens ATGL (full-length) (natural protein)
chain: MFPREKTWNISFAGCGFLGVYYVGVASCLREHAPFLVANATHIYGASAGALTATALVTGVCLGEAGAKFIEVSKEARKRFLGPLHPSFNLVKIIRSFLLKVLPADSHEHASGRLGISLTRVSDGENVIISHFNSKDELIQANVCSGFIPVYCGLIPPSLQGVRYVDGGISDNLPLYELKNTITVSPFSGESDICPQDSSTNIHELRVTNTSIQFNLRNLYRLSKALFPPEPLVLREMCKQGYRDGLRFLQRNGLLNRPNPLLALPPARPHGPEDKDQAVESAQAEDYSQLPGEDHILEHLPARLNEALLEACVEPTDLLTTLSNMLPVRLATAMMVPYTLPLESALSFTIRLLEWLPDVPEDIRWMKEQTGSICQYLVMRAKRKLGRHLPSRLPEQVELRRVQSLPSVPLSCAAYREALPGWMRNNLSLGDALAKWEECQRQLLLGLFCTNVAFPPEALRMRAPADPAPAPADPASPQHQLAGPAPLLSTPAPEARPVIGALGL
B2: His-Sec7-GBF1(710–894) (domain or fragment, human, UniProt Q92538-1 710-894, looked up)
chain: FNQKPKKGIQFLQEKGLLTIPMDNTEVAQWLRENPRLDKKMIGEFVSDRKNIDLLESFVSTFSFQGLRLDEALRLYLEAFRLPGEAPVIQRLLEAFTERWMNCNGSPFANSDACFSLAYAVIMLNTDQHNHNVRKQNAPMTLEEFRKNLKGVNGGKDFEQDILEDMYHAIKNEEIVMPEEQTGLV
notes: Sec7 domain, residues 710-894; the end of the His tag is read from the printed name; vector pBAD/His C; also called His-tagged Sec7 domain of GBF1; His-Sec7-GBF1 fragment; not shown: His tag, N-terminal, kept

Experiments:
[1] = target: Venus-tagged GBF1 HDS1 domain (human); test: co-IP; Cos7 cells co-transfected with HA-tagged ATGL constructs and Venus-tagged constructs; IP with anti-GFP, blot with anti-HA; lysis in 50 mM Tris-HCl pH 7.5, 100 mM NaCl, 1 mM EDTA, 0.5% NP40; 4°C
Sequence of Venus-tagged GBF1 HDS1 domain (human) (Q92538 688-888): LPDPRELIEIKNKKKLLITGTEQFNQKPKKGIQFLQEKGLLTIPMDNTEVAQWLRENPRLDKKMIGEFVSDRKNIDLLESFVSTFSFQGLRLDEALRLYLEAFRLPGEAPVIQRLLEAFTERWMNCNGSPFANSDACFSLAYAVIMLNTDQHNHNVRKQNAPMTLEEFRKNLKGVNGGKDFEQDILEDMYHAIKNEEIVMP

[2] = target: Venus-tagged N-GBF1 D544A (human); test: as above
[3] = target: Venus-tagged full-length GBF1 D544A (human) (UniProt Q92538); test: as above
Sequence of Venus-tagged full-length GBF1 D544A (human) (Q92538 other isoform, or with tags, fused parts or gaps, stated change not applied): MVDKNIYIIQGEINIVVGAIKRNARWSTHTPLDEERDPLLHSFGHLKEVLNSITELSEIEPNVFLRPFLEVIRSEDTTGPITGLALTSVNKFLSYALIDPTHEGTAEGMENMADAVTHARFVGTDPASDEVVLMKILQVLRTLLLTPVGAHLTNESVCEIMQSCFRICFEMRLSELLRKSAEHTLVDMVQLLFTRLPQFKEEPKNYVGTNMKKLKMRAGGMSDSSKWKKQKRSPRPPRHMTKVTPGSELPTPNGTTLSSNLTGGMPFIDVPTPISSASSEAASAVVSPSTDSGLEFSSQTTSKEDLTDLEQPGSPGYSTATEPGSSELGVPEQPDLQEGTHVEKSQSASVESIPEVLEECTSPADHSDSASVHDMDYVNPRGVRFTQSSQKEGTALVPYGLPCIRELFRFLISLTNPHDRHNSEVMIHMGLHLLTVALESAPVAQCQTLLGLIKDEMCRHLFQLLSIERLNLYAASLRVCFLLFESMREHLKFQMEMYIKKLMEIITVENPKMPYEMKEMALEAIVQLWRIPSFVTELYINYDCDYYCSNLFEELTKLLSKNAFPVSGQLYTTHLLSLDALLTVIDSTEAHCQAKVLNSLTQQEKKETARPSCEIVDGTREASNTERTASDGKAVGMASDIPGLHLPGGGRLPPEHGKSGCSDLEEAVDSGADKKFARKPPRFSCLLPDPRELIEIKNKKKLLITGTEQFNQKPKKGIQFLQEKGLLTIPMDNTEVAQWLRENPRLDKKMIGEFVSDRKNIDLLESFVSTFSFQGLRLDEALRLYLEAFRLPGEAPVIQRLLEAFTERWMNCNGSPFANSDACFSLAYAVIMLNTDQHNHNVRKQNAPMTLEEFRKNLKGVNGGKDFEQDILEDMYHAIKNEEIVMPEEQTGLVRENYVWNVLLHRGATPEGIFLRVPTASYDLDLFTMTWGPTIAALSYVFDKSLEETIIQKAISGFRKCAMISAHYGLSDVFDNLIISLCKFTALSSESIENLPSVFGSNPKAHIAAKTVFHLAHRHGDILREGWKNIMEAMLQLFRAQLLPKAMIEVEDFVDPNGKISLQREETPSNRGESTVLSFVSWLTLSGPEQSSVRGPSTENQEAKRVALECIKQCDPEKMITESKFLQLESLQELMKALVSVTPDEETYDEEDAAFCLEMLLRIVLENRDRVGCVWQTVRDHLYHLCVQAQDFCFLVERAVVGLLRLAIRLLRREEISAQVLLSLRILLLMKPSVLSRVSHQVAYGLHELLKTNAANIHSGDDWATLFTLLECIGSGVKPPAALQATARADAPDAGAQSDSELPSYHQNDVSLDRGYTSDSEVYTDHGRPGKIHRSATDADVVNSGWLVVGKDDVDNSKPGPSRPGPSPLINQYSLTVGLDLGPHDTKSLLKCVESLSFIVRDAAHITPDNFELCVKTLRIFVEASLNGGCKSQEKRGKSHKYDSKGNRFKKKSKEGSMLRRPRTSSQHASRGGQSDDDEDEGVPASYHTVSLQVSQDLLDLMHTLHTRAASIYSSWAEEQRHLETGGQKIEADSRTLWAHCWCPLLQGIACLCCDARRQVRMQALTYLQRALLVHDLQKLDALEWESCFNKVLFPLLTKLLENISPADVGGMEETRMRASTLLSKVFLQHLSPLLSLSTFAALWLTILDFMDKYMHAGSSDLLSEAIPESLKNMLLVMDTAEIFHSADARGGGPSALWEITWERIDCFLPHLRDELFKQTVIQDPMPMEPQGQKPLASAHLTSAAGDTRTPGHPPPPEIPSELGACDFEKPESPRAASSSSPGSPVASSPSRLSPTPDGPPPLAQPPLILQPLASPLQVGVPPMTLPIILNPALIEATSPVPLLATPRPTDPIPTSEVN

Venus-ΔDCB-GBF1 (human) = test: as above
Sequence of Venus-ΔDCB-GBF1 (human) (Q92538 whole entry, stated change not applied): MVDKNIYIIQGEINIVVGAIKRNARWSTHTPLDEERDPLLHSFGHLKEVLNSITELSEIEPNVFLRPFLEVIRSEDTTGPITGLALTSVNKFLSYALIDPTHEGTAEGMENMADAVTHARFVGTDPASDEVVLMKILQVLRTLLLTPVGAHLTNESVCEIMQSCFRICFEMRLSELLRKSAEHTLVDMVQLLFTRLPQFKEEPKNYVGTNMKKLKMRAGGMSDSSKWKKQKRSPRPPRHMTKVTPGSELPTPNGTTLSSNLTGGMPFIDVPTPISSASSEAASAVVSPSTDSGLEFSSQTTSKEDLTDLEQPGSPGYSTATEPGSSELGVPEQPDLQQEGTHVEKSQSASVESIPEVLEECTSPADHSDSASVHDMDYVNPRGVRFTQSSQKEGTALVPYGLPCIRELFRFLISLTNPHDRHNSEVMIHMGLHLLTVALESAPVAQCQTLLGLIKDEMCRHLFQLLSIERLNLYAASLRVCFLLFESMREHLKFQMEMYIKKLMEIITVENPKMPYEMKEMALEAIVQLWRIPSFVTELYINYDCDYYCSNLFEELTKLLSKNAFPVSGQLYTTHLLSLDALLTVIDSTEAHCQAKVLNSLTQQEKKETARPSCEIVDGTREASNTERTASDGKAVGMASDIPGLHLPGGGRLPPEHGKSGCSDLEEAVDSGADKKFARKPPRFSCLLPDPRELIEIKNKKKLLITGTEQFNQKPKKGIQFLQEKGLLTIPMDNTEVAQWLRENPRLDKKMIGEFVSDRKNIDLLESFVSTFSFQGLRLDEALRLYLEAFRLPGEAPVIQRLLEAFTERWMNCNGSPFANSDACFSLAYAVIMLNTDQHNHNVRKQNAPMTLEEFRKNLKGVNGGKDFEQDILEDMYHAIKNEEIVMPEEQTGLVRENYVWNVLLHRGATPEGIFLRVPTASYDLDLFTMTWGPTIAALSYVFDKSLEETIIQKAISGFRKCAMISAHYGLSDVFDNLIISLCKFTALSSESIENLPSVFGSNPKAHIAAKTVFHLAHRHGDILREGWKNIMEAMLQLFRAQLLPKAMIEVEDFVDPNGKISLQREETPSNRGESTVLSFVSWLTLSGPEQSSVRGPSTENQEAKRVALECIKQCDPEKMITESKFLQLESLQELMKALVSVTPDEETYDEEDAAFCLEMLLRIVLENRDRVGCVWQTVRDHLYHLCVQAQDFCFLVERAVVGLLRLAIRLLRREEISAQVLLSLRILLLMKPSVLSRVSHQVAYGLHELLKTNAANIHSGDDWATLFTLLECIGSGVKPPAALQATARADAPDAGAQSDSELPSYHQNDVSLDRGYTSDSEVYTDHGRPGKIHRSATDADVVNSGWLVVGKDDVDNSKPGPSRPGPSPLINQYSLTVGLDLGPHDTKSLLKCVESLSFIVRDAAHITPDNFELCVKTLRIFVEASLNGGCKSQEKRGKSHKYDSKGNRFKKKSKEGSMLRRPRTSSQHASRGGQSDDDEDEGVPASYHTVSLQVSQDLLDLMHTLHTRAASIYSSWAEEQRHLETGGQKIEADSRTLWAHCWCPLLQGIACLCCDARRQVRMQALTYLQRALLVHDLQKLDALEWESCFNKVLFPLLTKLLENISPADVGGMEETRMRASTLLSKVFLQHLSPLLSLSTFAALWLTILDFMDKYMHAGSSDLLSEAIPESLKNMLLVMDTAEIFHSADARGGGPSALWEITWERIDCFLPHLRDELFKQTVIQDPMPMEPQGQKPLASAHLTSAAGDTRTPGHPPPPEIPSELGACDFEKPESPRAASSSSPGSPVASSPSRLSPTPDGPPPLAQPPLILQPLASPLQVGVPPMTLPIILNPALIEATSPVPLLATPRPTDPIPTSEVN

GST-tagged ATGL(300–504) = target: T1, GST-tagged ATGL(300–504) (human, UniProt Q96AD5 300-504); test: pull-down; quantitative: 0.1 nmole His-Sec7-GBF1(710–894) immobilised on Ni Sepharose, 1–20 µM GST-tagged ATGL(300–504) added; anti-GST immunoblot, bound versus free, Scatchard analysis; apparent Kd; details: both partners purified
T1 construct: source: E. coli BL21(DE3), purified (glutathione Sepharose 4B, Sephacryl S-200)
T1 sequence (looked up): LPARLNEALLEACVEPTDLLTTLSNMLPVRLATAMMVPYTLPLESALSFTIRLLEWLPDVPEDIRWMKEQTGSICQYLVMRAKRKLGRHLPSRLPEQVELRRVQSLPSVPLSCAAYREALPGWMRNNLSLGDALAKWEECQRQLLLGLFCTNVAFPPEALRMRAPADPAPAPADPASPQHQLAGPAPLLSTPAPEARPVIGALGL

| Binder | percent of ATGL recovered in the co-IP [1] | fold level of interaction over the wild type N-terminal region [2] | fold level of interaction over wild type GBF1 [3] | fold level of interaction over wild type GBF1 (Venus-ΔDCB-GBF1 (human)) | Kd (GST-tagged ATGL(300–504)) |
| --- | --- | --- | --- | --- | --- |
| B1 | 10% | 5 to 10 fold | 10 fold | 10 fold | – |
| B2 | – | – | – | – | 2500 ± 300 nM |
